Source: the supplement of paper PMC10567573

B1: KRT13 (parent)
chain: YGGGLGGGFGGGFAGGFVDFGACD
B2: RSAD1 (parent)
chain: YCNFNKYIPRRLEEAAMQKCLVTE

Variants of: B1
Assay: protein stability index of a GFP-peptide fusion (GPS, HEK-293T) (PSI 1-6); higher = more stable
Conditions: c terminus: a fixed tail appended
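Note: lentivirally expressed fusions sorted by FACS into six bins by GFP to DsRed ratio, PSI derived from sequencing read proportions per bin multiplied by bin number.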

Protein stability index of substitutions, site by site:
G12: Q 1.39; D 2.22; L 2.25; K 1.69; C 2.75; F 3.05; S 1.77; E 1.84; V 2.42
L5: K 1.51; D 2.04; F 1.38; E 2.51; V 2.73; Y 2.79; C 1; S 1.36; P 1.95; A 1.64; M 1.93; I 2.27; R 2.62; Q 2.02; G 1.87; N 1.84; H 1.8; T 2.22; W 3.09
G7: R 1.74; Q 1.23; P 1.84; L 1.81; D 1.89; N 1.31; M 2.46; C 3.15; S 1.48; I 1.9; Y 2.36; A 2.41; F 3.32; E 1.91; T 1.49; H 1.92
G2: V 3.25; I 3.26; K 1.86; N 2.23; D 2.67; S 1.54; E 2.66; Y 1.63; F 2.91; W 2.56; L 3.13; R 2.33
F17: T 1.77; H 2.06; M 2.11; E 2.44; R 1.57; D 2.43; Y 2.01; Q 1.93; G 1.68; I 1.23; N 2.55; A 2.07; V 2.37; S 1.89; C 2.18; K 1.96; P 1.81; L 1.09
G11: I 3.54; N 2.43; K 1.97; Q 1.73; H 1.75; E 2.12; V 2.4; D 2.38; C 1.56; P 2.25; F 2.07; R 1.86; Y 4.04; S 1.92; M 2.25; T 1.84; L 3.08
G10: Q 2.21; V 1.93; C 4; F 2.02; H 1.7; A 2.01; K 1.53; I 1.58; P 1.92; R 1.91; S 2.15; E 1.96; W 3.23; M 3.61; D 2.03; N 1.38; T 1.26; Y 3.74
G16: N 1.71; E 1.69; Q 2.36; S 1.83; K 1.53; H 1.4; C 3.82; M 2.76; W 3.21; R 1.8; D 1.94; I 2.53; V 1.87; L 4.03; A 1.81; T 2.02; Y 2.16
V18: A 2.34

Variants of: B2
Assay: as above
Conditions: c terminus: a fixed tail appended

Protein stability index of substitutions, site by site:
T23: R 1.78; Q 3.64; S 1.93; K 2.27; N 2.85; I 2.22; M 2.17; P 3.87; L 1.91; W 2.85; Y 2.61; D 1.78; A 1.9; F 3; V 3.13; E 1.94; H 2.92
E24: A 3.14; V 1.9; F 2.77; N 2.17; P 2.28; I 2.83; Q 2.38; K 2.46; H 2.08; Y 2.16; S 1.64; T 1.44; G 2.29; D 2.4; W 2.13; C 3.44; R 2.32; L 3.31; M 2.84
V22: T 3.32; S 2.38; Y 1.41; W 2.23
